According to article PMC6879718, “Mycobacterial OtsA Structures Unveil Substrate Preference Mechanism and Allosteric Regulation by 2-Oxoglutarate and 2-Phosphoglycerate” (mBio, 2019):
Entries after “also recorded” stand apart in the source; their conditions may differ. Read-outs that look alike come from different tables or passages of the source.

Columns and labels:
Type in all cases: biochemical, Mycobacterium thermoresistibile
[1] = biological target: T1, M. thermoresistibile OtsA R213E (Mycolicibacterium thermoresistibile, UniProt G7CGT2, R213E); experiment: Effect of allosteric regulators on OtsA activity (R213E); conditions: R213E, G6P and ADP-glucose both 0.3 mM
T1 sequence (G7CGT2 1-486 R213E): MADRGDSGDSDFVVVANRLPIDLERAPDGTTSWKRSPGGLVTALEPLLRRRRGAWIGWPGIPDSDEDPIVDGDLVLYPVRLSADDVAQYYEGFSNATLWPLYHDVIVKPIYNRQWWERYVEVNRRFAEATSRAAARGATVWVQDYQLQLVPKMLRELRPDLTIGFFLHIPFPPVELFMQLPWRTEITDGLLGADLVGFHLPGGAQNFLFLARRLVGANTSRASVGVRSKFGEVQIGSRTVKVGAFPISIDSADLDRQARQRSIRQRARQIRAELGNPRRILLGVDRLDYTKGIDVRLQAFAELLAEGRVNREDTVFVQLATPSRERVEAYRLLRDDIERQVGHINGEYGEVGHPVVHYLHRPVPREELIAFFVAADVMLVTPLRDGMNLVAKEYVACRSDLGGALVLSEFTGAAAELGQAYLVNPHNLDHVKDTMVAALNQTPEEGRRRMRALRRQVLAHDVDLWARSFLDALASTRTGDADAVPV
Protocol: (§1) . All reagents used were obtained from Sigma-Aldrich. The enzymatic reactions (200-μl reaction mixture) were performed at 37°C, and the reaction mixtures contained 50 mM Tris (pH 7.5), 200 mM NaCl, 10 mM MgCl2, 50 mM KCl, 0.3 mM NADH, 2.5 mM phosphoenolpyruvate (PEP), 10 units of pyruvate kinase-lactate dehydrogenase, 0.1 μM enzyme, and various concentrations of G6P and NDP-glucose to determine kinetic parameters.
(§2) […]. All experiments were performed in triplicate in a PHERAstar plate reader (BMG Labtech), and data were analyzed with Prism 5 (GraphPad Software).

[2] = biological target: M. thermoresistibile OtsA wild type (Mycolicibacterium thermoresistibile, UniProt G7CGT2); experiment: Effect of feedback inhibitors and allosteric regulators on OtsA activity (wild type)
[3] = biological target: T2, M. thermoresistibile OtsA R384E (Mycolicibacterium thermoresistibile, UniProt G7CGT2, R384E); experiment: Effect of allosteric regulators on OtsA activity (R384E); conditions: R384E, G6P and ADP-glucose both 0.3 mM
T2 sequence (G7CGT2 1-486 R384E): T1 sequence (G7CGT2 1-486 R213E)
Protocol: as §1, §2

[4] = test system: O=C[C@H](O)[C@@H](O)[C@H](O)[C@H](O)COP(=O)(O)O; experiment: OtsA kinetic parameters, continuous colorimetric coupled assay (L319I); conditions: other: L319I; G6P fixed at 10 mM for NDP-glucose, ADP-glucose […] for G6P; pH 7.5; 37.0 °C
Protocol: (§3) Formation of T6P was assessed by a continuous colorimetric assay that followed the release of NDP by measuring the oxidation of NADH at 340 nm, in the presence of pyruvate kinase and lactate dehydrogenase. All reagents used were obtained from Sigma-Aldrich.

[5] = test system: Nc1nc2c(ncn2[C@@H]2O[C@H](COP(=O)(O)OP(=O)(O)O[C@H]3O[C@H](CO)[C@@H](O)[C@H](O)[C@H]3O)[C@@H](O)[C@H]2O)c(=O)[nH]1; experiment: as above; conditions: other: L319I; G6P fixed at 10 mM for NDP-glucose, ADP-glucose […] for G6P; pH 7.5; 37.0 °C
Protocol: as §3

[6] = test system: Nc1ncnc2c1ncn2[C@@H]1O[C@H](COP(=O)(O)OP(=O)(O)O[C@H]2O[C@H](CO)[C@@H](O)[C@H](O)[C@H]2O)[C@@H](O)[C@H]1O; experiment: as above; conditions: other: L319I; G6P fixed at 10 mM for NDP-glucose, ADP-glucose […] for G6P; pH 7.5; 37.0 °C
Protocol: as §3

[7] = test system: O=C[C@H](O)[C@@H](O)[C@H](O)[C@H](O)COP(=O)(O)O; experiment: OtsA kinetic parameters, continuous colorimetric coupled assay (V363F); conditions: other: V363F; G6P fixed at 10 mM for NDP-glucose, ADP-glucose […] for G6P; pH 7.5; 37.0 °C
Protocol: as §3

[8] = test system: Nc1nc2c(ncn2[C@@H]2O[C@H](COP(=O)(O)OP(=O)(O)O[C@H]3O[C@H](CO)[C@@H](O)[C@H](O)[C@H]3O)[C@@H](O)[C@H]2O)c(=O)[nH]1; experiment: as above; conditions: other: V363F; G6P fixed at 10 mM for NDP-glucose, ADP-glucose […] for G6P; pH 7.5; 37.0 °C
Protocol: as §3

[9] = test system: Nc1ncnc2c1ncn2[C@@H]1O[C@H](COP(=O)(O)OP(=O)(O)O[C@H]2O[C@H](CO)[C@@H](O)[C@H](O)[C@H]2O)[C@@H](O)[C@H]1O; experiment: as above; conditions: other: V363F; G6P fixed at 10 mM for NDP-glucose, ADP-glucose […] for G6P; pH 7.5; 37.0 °C
Protocol: as §3

[10] = test system: O=C[C@H](O)[C@@H](O)[C@H](O)[C@H](O)COP(=O)(O)O; experiment: OtsA kinetic parameters, continuous colorimetric coupled assay (R213E); conditions: other: R213E; G6P fixed at 10 mM for NDP-glucose, ADP-glucose […] for G6P; pH 7.5; 37.0 °C
Protocol: as §1, with “Formation of T6P was assessed by a continuous colorimetric assay that followed the release of NDP by measuring the oxidation of NADH at 340 nm, in the presence of pyruvate kinase and lactate dehydrogenase. All” for “. All”

[11] = test system: Nc1ncnc2c1ncn2[C@@H]1O[C@H](COP(=O)(O)OP(=O)(O)O[C@H]2O[C@H](CO)[C@@H](O)[C@H](O)[C@H]2O)[C@@H](O)[C@H]1O; experiment: as above; conditions: other: R213E; G6P fixed at 10 mM for NDP-glucose, ADP-glucose […] for G6P; pH 7.5; 37.0 °C
Protocol: as §1, with “Formation of T6P was assessed by a continuous colorimetric assay that followed the release of NDP by measuring the oxidation of NADH at 340 nm, in the presence of pyruvate kinase and lactate dehydrogenase. All” for “. All”

[12] = test system: O=C[C@H](O)[C@@H](O)[C@H](O)[C@H](O)COP(=O)(O)O; experiment: OtsA kinetic parameters, continuous colorimetric coupled assay (R384E); conditions: other: R384E; G6P fixed at 10 mM for NDP-glucose, ADP-glucose […] for G6P; pH 7.5; 37.0 °C
Protocol: as §1, with “Formation of T6P was assessed by a continuous colorimetric assay that followed the release of NDP by measuring the oxidation of NADH at 340 nm, in the presence of pyruvate kinase and lactate dehydrogenase. All” for “. All”

[13] = test system: Nc1ncnc2c1ncn2[C@@H]1O[C@H](COP(=O)(O)OP(=O)(O)O[C@H]2O[C@H](CO)[C@@H](O)[C@H](O)[C@H]2O)[C@@H](O)[C@H]1O; experiment: as above; conditions: other: R384E; G6P fixed at 10 mM for NDP-glucose, ADP-glucose […] for G6P; pH 7.5; 37.0 °C
Protocol: as §1, with “Formation of T6P was assessed by a continuous colorimetric assay that followed the release of NDP by measuring the oxidation of NADH at 340 nm, in the presence of pyruvate kinase and lactate dehydrogenase. All” for “. All”

[14] = test system: O=C[C@H](O)[C@@H](O)[C@H](O)[C@H](O)COP(=O)(O)O; experiment: OtsA kinetic parameters, continuous colorimetric coupled assay (L319I, V363F, E367L); conditions: other: L319I, G6P fixed at 10 mM for NDP-glucose, ADP-glucose […] for G6P, pH 7.5, 37.0 °C
Protocol: as §3

[15] = test system: Nc1nc2c(ncn2[C@@H]2O[C@H](COP(=O)(O)OP(=O)(O)O[C@H]3O[C@H](CO)[C@@H](O)[C@H](O)[C@H]3O)[C@@H](O)[C@H]2O)c(=O)[nH]1; experiment: as above; conditions: other: L319I, G6P fixed at 10 mM for NDP-glucose, ADP-glucose […] for G6P, pH 7.5, 37.0 °C
Protocol: as §3

[16] = test system: Nc1ncnc2c1ncn2[C@@H]1O[C@H](COP(=O)(O)OP(=O)(O)O[C@H]2O[C@H](CO)[C@@H](O)[C@H](O)[C@H]2O)[C@@H](O)[C@H]1O; experiment: as above; conditions: other: L319I, G6P fixed at 10 mM for NDP-glucose, ADP-glucose […] for G6P, pH 7.5, 37.0 °C
Protocol: as §3

[17] = test system: O=C[C@H](O)[C@@H](O)[C@H](O)[C@H](O)COP(=O)(O)O; experiment: OtsA kinetic parameters, continuous colorimetric coupled assay (L319I, E367L); conditions: other: L319I, G6P fixed at 10 mM for NDP-glucose, ADP-glucose […] for G6P, pH 7.5, 37.0 °C
Protocol: as §3

[18] = test system: Nc1nc2c(ncn2[C@@H]2O[C@H](COP(=O)(O)OP(=O)(O)O[C@H]3O[C@H](CO)[C@@H](O)[C@H](O)[C@H]3O)[C@@H](O)[C@H]2O)c(=O)[nH]1; experiment: as above; conditions: other: L319I, G6P fixed at 10 mM for NDP-glucose, ADP-glucose […] for G6P, pH 7.5, 37.0 °C
Protocol: as §3

[19] = test system: Nc1ncnc2c1ncn2[C@@H]1O[C@H](COP(=O)(O)OP(=O)(O)O[C@H]2O[C@H](CO)[C@@H](O)[C@H](O)[C@H]2O)[C@@H](O)[C@H]1O; experiment: as above; conditions: other: L319I, G6P fixed at 10 mM for NDP-glucose, ADP-glucose […] for G6P, pH 7.5, 37.0 °C
Protocol: as §3

[20] = wild type, G6P and ADP-glucose both 0.3 mM

O=C(O)CCC(=O)C(=O)O [2OG, 2-oxoglutarate]
effect on OtsA activity [1]: abolished the strong response
nH, Hill coefficient (95% confidence interval) [1]: 0.26 (0.16–0.35)
IC50 ([1]; read-out: IC50 (95% confidence interval)): 73000 µM
nH, Hill coefficient (95% confidence interval) [2, 20]: 1.4 (1.1–1.7)
IC50 ([2]; wild type, G6P and ADP-glucose both 0.3 mM, read-out: IC50 (95% confidence interval)): 1800 µM
effect on OtsA activity [3]: strong activator
nH, Hill coefficient (95% confidence interval) [3]: 2.5 (1.4–3.5)
EC50 ([3]; read-out: EC50 (95% confidence interval), activation): 700 µM

M. thermoresistibile OtsA L319I (Mycolicibacterium thermoresistibile ATCC 19527; L319I)
Km [4]: 3300 ± 200 µM
kcat [4]: 6.4 ± 0.2 s⁻¹
kcat/Km [4]: 1900 ± 200 M⁻¹ s⁻¹
Km [5]: 350 ± 40 µM
kcat [5]: 3.1 ± 0.1 s⁻¹
kcat/Km [5]: 8900 ± 1400 M⁻¹ s⁻¹
Km [6]: 710 ± 180 µM
kcat [6]: 8.4 ± 0.7 s⁻¹
kcat/Km [6]: 12000 ± 2000 M⁻¹ s⁻¹

M. thermoresistibile OtsA V363F (Mycolicibacterium thermoresistibile ATCC 19527; V363F)
Km [7]: 3100 ± 200 µM
kcat [7]: 19 ± 1 s⁻¹
kcat/Km [7]: 6100 ± 700 M⁻¹ s⁻¹
Km [8]: 740 ± 80 µM
kcat [8]: 14 ± 1 s⁻¹
kcat/Km [8]: 19000 ± 3000 M⁻¹ s⁻¹
Km [9]: 600 ± 30 µM
kcat [9]: 11 ± 1 s⁻¹
kcat/Km [9]: 18000 ± 2000 M⁻¹ s⁻¹

M. thermoresistibile OtsA R213E (Mycolicibacterium thermoresistibile ATCC 19527; R213E)
Km [10]: 3300 ± 300 µM
kcat [10]: 33 ± 2 s⁻¹
kcat/Km [10]: 10000 ± 1000 M⁻¹ s⁻¹
Km [11]: 310 ± 10 µM
kcat [11]: 56 ± 2 s⁻¹
kcat/Km [11]: 180000 ± 13000 M⁻¹ s⁻¹

M. thermoresistibile OtsA R384E (Mycolicibacterium thermoresistibile ATCC 19527; R384E)
Km [12]: 2900 ± 200 µM
kcat [12]: 2.1 ± 0.2 s⁻¹
kcat/Km [12]: 770 ± 50 M⁻¹ s⁻¹
Km [13]: 1900 ± 200 µM
kcat [13]: 3.2 ± 0.1 s⁻¹
kcat/Km [13]: 1700 ± 200 M⁻¹ s⁻¹

OC[C@H]1O[C@H](O[C@H]2O[C@H](CO)[C@@H](O)[C@H](O)[C@H]2O)[C@H](O)[C@@H](O)[C@@H]1O [Trehalose]
IC50 [2]: ~24000 µM

M. thermoresistibile OtsA L319I, V363F, E367L (Mycolicibacterium thermoresistibile ATCC 19527; E367L/L319I/V363F)
Km [14]: 3200 ± 200 µM
kcat [14]: 17 ± 1 s⁻¹
kcat/Km [14]: 5300 ± 600 M⁻¹ s⁻¹
Km [15]: 900 ± 60 µM
kcat [15]: 16 ± 1 s⁻¹
kcat/Km [15]: 18000 ± 2000 M⁻¹ s⁻¹
Km [16]: 1300 ± 100 µM
kcat [16]: 19 ± 1 s⁻¹
kcat/Km [16]: 15000 ± 2000 M⁻¹ s⁻¹

O=P(O)(O)OC[C@H]1O[C@H](O[C@H]2O[C@H](CO)[C@@H](O)[C@H](O)[C@H]2O)[C@H](O)[C@@H](O)[C@@H]1O [T6P, trehalose-6-phosphate]
effect on OtsA activity [2, 20]: very low sensitivity

O=C(CO)[C@@H](O)[C@H](O)[C@H](O)COP(=O)(O)O [F6P]
effect on OtsA activity [2]: could not detect any effect; also recorded: no effect on the enzyme activity

M. thermoresistibile OtsA L319I, E367L (Mycolicibacterium thermoresistibile ATCC 19527; E367L/L319I)
Km [17]: 3700 ± 200 µM
kcat [17]: 21 ± 1 s⁻¹
kcat/Km [17]: 5700 ± 500 M⁻¹ s⁻¹
Km [18]: 700 ± 50 µM
kcat [18]: 9.2 ± 0.4 s⁻¹
kcat/Km [18]: 13000 ± 2000 M⁻¹ s⁻¹
Km [19]: 630 ± 40 µM
kcat [19]: 14 ± 1 s⁻¹
kcat/Km [19]: 22000 ± 3000 M⁻¹ s⁻¹

O=C(O)C(CO)OP(=O)(O)O (stereo not shown) [2PG, 2-phosphoglyceric acid]
nH, Hill coefficient (95% confidence interval) [1]: 0.51 (0.40–0.63)
IC50 [2]: 2300 µM
nH, Hill coefficient (95% confidence interval) [2, 20]: 2.0 (1.4–2.7)
effect on OtsA activity [3]: no effect

O=S(=O)(O)CCNC1CCCCC1 [CHES, N-cyclohexyl-2-aminoethanesulfonic acid]
effect on OtsA activity [2, 20]: no discernible impact on OtsA activity
